Consider 25 sequences from the supplement of paper PMC9233669.

For data set [1], the system named is biotinyl-Phe-oxazolone. The data set can be described thus: self-aminoacylation, catalytic enhancement (BFO) (fold over background); higher = more active; k-Seq, kA / k0A0; sequences stand for … in GGGAAUGGAUCCACAUCUACGAAUUC…UUCACUGCAGACUUGACGAAGCUG
The essentials: (§1)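 Each biotinyl-aminoacyl-oxazolone, at 2–1250 μM, was incubated with mutagenized RNA pools (0.43 μM) carrying a 21-nt variable region. The 50 μL reactions contained HEPES/NaCl/KCl/MgCl2/CaCl2 buffer with 5% acetonitrile at pH 6.9–7.0 and ran for 90 minutes at room temperature. After streptavidin capture, RNA was measured by qPCR in triplicate and by Illumina sequencing, and catalytic enhancement was calculated as median kA over the uncatalyzed rate from a pseudo-first-order fit of per-sequence fraction reacted.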

Data set [2] deals with biotinyl-Met-oxazolone. The data set can be described thus: self-aminoacylation, catalytic enhancement (BMO) (fold over background); higher = more active; k-Seq, kA / k0A0; sequences stand for … in GGGAAUGGAUCCACAUCUACGAAUUC…UUCACUGCAGACUUGACGAAGCUG
The essentials: as §1

Data set [3] concerns biotinyl-Leu-oxazolone. The data set can be described thus: self-aminoacylation, catalytic enhancement (BLO) (fold over background); higher = more active; k-Seq, kA / k0A0; sequences stand for … in GGGAAUGGAUCCACAUCUACGAAUUC…UUCACUGCAGACUUGACGAAGCUG
The essentials:
as §1

Data set [4] has as its system biotinyl-Val-oxazolone. The data set can be described thus: self-aminoacylation, catalytic enhancement (BVO) (fold over background); higher = more active; k-Seq, kA / k0A0; sequences stand for … in GGGAAUGGAUCCACAUCUACGAAUUC…UUCACUGCAGACUUGACGAAGCUG
The method in brief: as §1

Data set [5] concerns biotinyl-Trp-oxazolone. The data set can be described thus: self-aminoacylation, catalytic enhancement (BWO) (fold over background); higher = more active; k-Seq, kA / k0A0; sequences stand for … in GGGAAUGGAUCCACAUCUACGAAUUC…UUCACUGCAGACUUGACGAAGCUG
The method in brief: as §1

Data set [6] relates to biotinyl-Ile-oxazolone. Description: self-aminoacylation, catalytic enhancement (BIO) (fold over background); higher = more active; k-Seq, kA / k0A0; sequences stand for … in GGGAAUGGAUCCACAUCUACGAAUUC…UUCACUGCAGACUUGACGAAGCUG
The essentials:
as §1

Fewer inactive variants are shown than the library holds.

For “CCACACUUCAAGCAACCGGUC [Fam1B.1 aminoacylation ribozyme variant]”, the self-aminoacylation turned out to be 1.31 in data set [1]; 0.783 in data set [2]; 0.721 in data set [3]; 1.01 in data set [4]; 0.935 in data set [5]; 0.933 in data set [6].
On to “CCACACUUCAAGCAACGGGUC [Fam1B.1 aminoacylation ribozyme variant]”, for which the self-aminoacylation in data set [1] amounted to 0.777; in data set [2] it was 0.626; in data set [3], 0.569; in data set [4], 0.81; in data set [5], 0.464; in data set [6] it was 0.624.
For “CCACACUUCAAGCAACUGGUC [Fam1B.1 aminoacylation ribozyme variant]”, the self-aminoacylation was 0.699 in data set [1]; 0.52 in data set [2]; 0.505 in data set [3]; 0.616 in data set [4]; 0.338 in data set [5]; 0.57 in data set [6].
On to “CCACACUUCAAGCAAGCGGCC [Fam1B.1 aminoacylation ribozyme variant]”, for which the self-aminoacylation in data set [1] was 0.898; in data set [2] it was 2.63; in data set [3], 3.28; in data set [4] it was 2.96; in data set [5], 1.46; in data set [6] it was 2.38.
For “CCACACUUCAAGCAAGCGGUC [Fam1B.1 aminoacylation ribozyme variant]”, the self-aminoacylation in data set [1] came out at 0.769; in data set [2], 0.791; in data set [3], 0.785; in data set [4] it was 0.961; in data set [5] it was 0.62; in data set [6], 0.87.
As for “CCACACUUCAAGCAAUAGCUC [Fam1B.1 aminoacylation ribozyme variant]”, the self-aminoacylation came to 0.859 in data set [1]; 0.708 in data set [2]; 0.941 in data set [3]; 0.816 in data set [4]; 0.427 in data set [5]; 0.691 in data set [6].
On to “CCACACUUCAAGCAAUCACUC [Fam1B.1 aminoacylation ribozyme variant]”, for which the self-aminoacylation in data set [1] was found to be 0.957; in data set [2], 0.509; in data set [3] it was 0.43; in data set [4], 0.669; in data set [5], 0.564; in data set [6] it was 0.591.
In the case of “CCACACUUCAAGCAAUCCGUU [Fam1B.1 aminoacylation ribozyme variant]”, the self-aminoacylation in data set [1] amounted to 0.872; in data set [2], 1.31; in data set [3], 1.27; in data set [4], 1.27; in data set [5], 1.45; in data set [6], 1.4.
Take “CCACACUUCAAGCAAUCGAAC [Fam1B.1 aminoacylation ribozyme variant]”: the self-aminoacylation amounted to 0.953 in data set [1]; 0.402 in data set [2]; 0.41 in data set [3]; 0.76 in data set [4]; 0.578 in data set [5]; 0.557 in data set [6].
Turning to “CCACACUUCAAGCAAUCGCUC [Fam1B.1 aminoacylation ribozyme variant]”, the self-aminoacylation is 1.2 in data set [1]; 1.3 in data set [2]; 1.27 in data set [3]; 1.44 in data set [4]; 1.29 in data set [5]; 1.33 in data set [6].
With “CCACACUUCAAGCAAUCGGAG [Fam1B.1 aminoacylation ribozyme variant]”, the self-aminoacylation in data set [1] was found to be 0.817; in data set [2], 0.743; in data set [3], 0.591; in data set [4] it was 1.16; in data set [5] it was 1.03; in data set [6] it was 0.874.
In the case of “CCACACUUCAAGCAAUCGUAC [Fam1B.1 aminoacylation ribozyme variant]”, the self-aminoacylation was found to be 1.29 in data set [1]; 0.351 in data set [2]; 0.58 in data set [3]; 0.669 in data set [4]; 0.546 in data set [5]; 0.473 in data set [6].
For “CCACACUUCAAGCAAUCUCUC [Fam1B.1 aminoacylation ribozyme variant]”, the self-aminoacylation in data set [1] is 0.826; in data set [2], 0.514; in data set [3], 0.385; in data set [4] it was 0.669; in data set [5] it was 0.383; in data set [6] it was 0.61.
As for “CCACACUUCAAGCAAUCUGGC [Fam1B.1 aminoacylation ribozyme variant]”, the self-aminoacylation in data set [1] came out at 0.94; in data set [2] it was 0.71; in data set [3] it was 0.804; in data set [4] it was 0.861; in data set [5] it was 0.834; in data set [6], 0.851.
For the sequence “CCACACUUCAAGCAAUGGGUA [Fam1B.1 aminoacylation ribozyme variant]”, the self-aminoacylation is 0.907 in data set [1]; 1.39 in data set [2]; 1.31 in data set [3]; 1.4 in data set [4]; 1.35 in data set [5]; 1.35 in data set [6].
For the sequence “CCACACUUCAAGCAAUGGGUC [Fam1B.1 aminoacylation ribozyme variant]”, the self-aminoacylation stood at 0.841 in data set [1]; 0.677 in data set [2]; 0.677 in data set [3]; 0.793 in data set [4]; 0.627 in data set [5]; 0.78 in data set [6].
Turning to “CCACACUUCAAGCAAUGGUUC [Fam1B.1 aminoacylation ribozyme variant]”, the self-aminoacylation came to 0.776 in data set [1]; 0.61 in data set [2]; 0.596 in data set [3]; 0.574 in data set [4]; 0.678 in data set [5]; 0.619 in data set [6].
For “CCACACUUCAAGCAAUUGGGC [Fam1B.1 aminoacylation ribozyme variant]”, the self-aminoacylation was found to be 1 in data set [1]; 2.12 in data set [2]; 2.16 in data set [3]; 1.98 in data set [4]; 2.98 in data set [5]; 1.79 in data set [6].
With “CCACACUUCAAGCACGCGGUC [Fam1B.1 aminoacylation ribozyme variant]”, the self-aminoacylation in data set [1] was 0.928; in data set [2] it was 2.3; in data set [3] it was 1.54; in data set [4], 2.1; in data set [5] it was 1.91; in data set [6], 1.76.
“CCACACUUCAAGCAGUCAGUC [Fam1B.1 aminoacylation ribozyme variant]”: the self-aminoacylation in data set [1] was 0.947; in data set [2], 0.562; in data set [3], 0.717; in data set [4], 0.91; in data set [5] it was 0.54; in data set [6], 0.788.
Consider “CCACACUUCAAGCAUCCGGUC [Fam1B.1 aminoacylation ribozyme variant]”, for which the self-aminoacylation in data set [1] came out at 0.999; in data set [2] it was 0.859; in data set [3], 0.817; in data set [4], 1.38; in data set [5] it was 1.11; in data set [6], 1.03.
Turning to “CCACACUUCAAGCAUUCGGGC [Fam1B.1 aminoacylation ribozyme variant]”, the self-aminoacylation in data set [1] came out at 1.51; in data set [2], 2.37; in data set [3] it was 1.79; in data set [4] it was 2.83; in data set [5], 2.99; in data set [6] it was 2.54.
On to “CCACACUUCAAGCAUUCGGUC [Fam1B.1 aminoacylation ribozyme variant]”, for which the self-aminoacylation in data set [1] was 0.969; in data set [2] it was 0.887; in data set [3] it was 0.899; in data set [4], 1.27; in data set [5], 0.943; in data set [6], 1.12.
For “CCACACUUCAAGCAUUCUGUC [Fam1B.1 aminoacylation ribozyme variant]”, the self-aminoacylation in data set [1] was found to be 0.618; in data set [2], 0.32; in data set [3], 0.284; in data set [4], 0.497; in data set [5], 0.372; in data set [6], 0.414.
On to “CCACACUUCAAGCCACCGGUC [Fam1B.1 aminoacylation ribozyme variant]”, for which the self-aminoacylation in data set [1] was determined as 1.28; in data set [2], 1.43; in data set [3] it was 1.47; in data set [4], 2.12; in data set [5], 1.23; in data set [6] it was 1.64.
